{
  "source": "paper PMC10567702",
  "about": "“A concerted ATPase cycle of the protein transporter AAA-ATPase Bcs1” (Nature Communications, 2023)",
  "proteins": {"B1": {"name": "Bcs1 (mBcs1) (Mus musculus) (protein)", "chain": "MPFSDFVLALKDNPYFGAGFGLVGVGTALAMARKGAQLGLVAFRRHYMITLEVPARDRSYAWLLSWLTRHSTRTQHLSVETSYLQHESGRISTKFEFIPSPGNHFIWYQGKWIRVERNRDMQMVDLQTGTPWESVTFTALGTDRKVFFNILEEARALALQQEEGKTVMYTAVGSEWRTFGYPRRRRPLDSVVLQQGLADRIVKDIREFIDNPKWYIDRGIPYRRGYLLYGPPGCGKSSFITALAGELEHSICLLSLTDSSLSDDRLNHLLSVAPQQSLVLLEDVDAAFLSRDLAVENPIKYQGLGRLTFSGLLNALDGVASTEARIVFMTTNYIDRLDPALIRPGRVDLKEYVGYCSHWQLTQMFQRFYPGQAPSLAENFAEHVLKATSEISPAQVQGYFMLYKNDPMGAVHNIESLR"}},
  "substrate": "Nc1ncnc2c1ncn2[C@@H]1O[C@H](COP(=O)(O)OP(=O)(O)OP(=O)(O)O)[C@@H](O)[C@H]1O",
  "assay": "purified protein",
  "conditions": "conformational turnover per ring (printed as Vmax, maximum turnover rate), reconstituted membranes, 10 mM HEPES pH 7.5, 200 mM NaCl, 2 mM MgCl2, ambient temperature",
  "data": [
    {"protein": "B1", "values": [
      {"measurement": "Km", "value": 0.2, "unit": "µM"},
      {"measurement": "kcat", "value": "~0.17", "unit": "s⁻¹"}
    ]}
  ]
}
